Results from patent US20060094663A1.
Each block holds one binder with its values, some of them ahead of it. Where no end group is shown, it is not given here. [ ]: non-standard residue; d: D form. I2aa = indolizidin-2-one amino acid (2-oxo-3-amino-azabicyclo[4.3.0]nonane-9-carboxylic acid), a dipeptide surrogate; dOrn = NCCC[C@@H](N)C(=O)O

Columns and labels:
[1] = target: IL-1R/IL-1RacP receptor (cells or tissue whose species is not stated); assay: cell-based or functional assay
[2] = target: IL-1R/IL-1RacP receptor on porcine cells and vessels (porcine (piglet)); assay: cell-based or functional assay

IL-1R/IL-1RacP receptor (cells or tissue whose species is not stated), sequence (P14778 whole entry, chain 1 of 2): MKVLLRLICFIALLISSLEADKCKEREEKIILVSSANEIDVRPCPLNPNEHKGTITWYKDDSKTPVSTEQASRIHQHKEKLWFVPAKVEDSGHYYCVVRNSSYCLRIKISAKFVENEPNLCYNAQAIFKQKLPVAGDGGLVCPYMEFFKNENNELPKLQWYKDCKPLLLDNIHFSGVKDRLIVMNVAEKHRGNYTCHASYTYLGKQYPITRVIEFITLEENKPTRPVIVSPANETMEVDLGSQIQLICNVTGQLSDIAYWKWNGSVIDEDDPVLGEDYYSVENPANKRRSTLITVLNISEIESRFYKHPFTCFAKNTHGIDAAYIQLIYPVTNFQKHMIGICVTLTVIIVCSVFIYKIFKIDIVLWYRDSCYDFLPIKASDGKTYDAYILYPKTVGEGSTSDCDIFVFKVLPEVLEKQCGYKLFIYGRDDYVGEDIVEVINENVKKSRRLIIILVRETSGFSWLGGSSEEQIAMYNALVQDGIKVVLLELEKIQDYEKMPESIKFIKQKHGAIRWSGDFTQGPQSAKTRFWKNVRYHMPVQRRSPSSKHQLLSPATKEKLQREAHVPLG
IL-1R/IL-1RacP receptor (cells or tissue whose species is not stated), sequence (Q9NPH3 whole entry, chain 2 of 2, further chain): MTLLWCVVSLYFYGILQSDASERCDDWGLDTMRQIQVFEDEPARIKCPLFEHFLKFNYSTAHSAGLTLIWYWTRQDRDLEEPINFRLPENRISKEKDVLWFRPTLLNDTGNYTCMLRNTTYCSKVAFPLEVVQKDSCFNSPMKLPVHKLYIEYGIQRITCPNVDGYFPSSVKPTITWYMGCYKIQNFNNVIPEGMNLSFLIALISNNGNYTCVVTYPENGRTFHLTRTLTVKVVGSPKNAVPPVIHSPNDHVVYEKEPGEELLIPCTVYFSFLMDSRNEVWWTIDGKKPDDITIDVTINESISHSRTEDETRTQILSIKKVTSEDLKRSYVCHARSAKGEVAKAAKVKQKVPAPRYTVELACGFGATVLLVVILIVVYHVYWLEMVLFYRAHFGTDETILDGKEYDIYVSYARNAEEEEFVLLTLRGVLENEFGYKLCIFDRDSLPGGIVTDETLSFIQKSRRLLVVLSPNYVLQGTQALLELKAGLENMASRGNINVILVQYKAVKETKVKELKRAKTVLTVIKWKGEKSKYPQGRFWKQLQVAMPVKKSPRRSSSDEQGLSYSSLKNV

IC50 (FIG. 26; assay not given) [1]: 0.09 nM
efficacy (FIG. 26; assay not given) [1]: 100%
B1: TTI-101.125 (peptide)
peptide: [dOrn][dY]X[dE][dL][dA]
modifications: not fully specified (residue 3); printed as (D-orn)y[R-I2aa]ela

IC50, IL-1-induced PGE2 synthesis, endothelial cells [2]: 0.0002 nM
fold potency against API-101.107, IL-1-induced PGE2 synthesis, endothelial cells [2]: 10 fold
activity (FIG. 26; assay not given) [1]: 10 pM
B2: API-101.110 (peptide)
peptide: [dR][dY][I2aa][dE][dL][dA]-NH2

IC50 (FIG. 26; assay not given) [1]: 2400 nM
efficacy (FIG. 26; assay not given) [1]: 100%
B3: TTI-101.124 (peptide)
peptide: [dR][dY]X[dE][dL]
modifications: not fully specified (residue 3); printed as ry[R-I2aa]el
